Measured values as given in PMC9769368 (2022).

T1: AAVGo.1 virus-like particles (goat adeno-associated virus capsid, without DNA genome) (goat adeno-associated virus AAVGo.1)
T1 chain 1: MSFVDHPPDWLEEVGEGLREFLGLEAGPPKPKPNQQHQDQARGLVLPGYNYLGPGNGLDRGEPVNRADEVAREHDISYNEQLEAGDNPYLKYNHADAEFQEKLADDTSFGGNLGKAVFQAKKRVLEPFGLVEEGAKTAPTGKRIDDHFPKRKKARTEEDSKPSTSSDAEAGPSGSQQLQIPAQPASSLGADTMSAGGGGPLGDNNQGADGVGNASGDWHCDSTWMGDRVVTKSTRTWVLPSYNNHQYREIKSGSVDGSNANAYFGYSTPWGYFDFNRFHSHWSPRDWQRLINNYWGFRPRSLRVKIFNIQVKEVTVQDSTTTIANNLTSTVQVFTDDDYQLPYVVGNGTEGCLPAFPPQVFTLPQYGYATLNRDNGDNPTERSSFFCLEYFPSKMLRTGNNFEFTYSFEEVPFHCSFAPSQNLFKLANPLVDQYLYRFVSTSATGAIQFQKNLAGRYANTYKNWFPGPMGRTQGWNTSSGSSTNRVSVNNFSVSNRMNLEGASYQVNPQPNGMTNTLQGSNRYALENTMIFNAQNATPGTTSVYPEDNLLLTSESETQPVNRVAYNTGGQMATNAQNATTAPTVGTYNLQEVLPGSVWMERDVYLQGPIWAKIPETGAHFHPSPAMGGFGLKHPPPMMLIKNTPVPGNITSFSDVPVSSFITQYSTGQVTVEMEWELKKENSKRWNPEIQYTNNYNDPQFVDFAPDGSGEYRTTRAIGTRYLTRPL
T1 chain 2: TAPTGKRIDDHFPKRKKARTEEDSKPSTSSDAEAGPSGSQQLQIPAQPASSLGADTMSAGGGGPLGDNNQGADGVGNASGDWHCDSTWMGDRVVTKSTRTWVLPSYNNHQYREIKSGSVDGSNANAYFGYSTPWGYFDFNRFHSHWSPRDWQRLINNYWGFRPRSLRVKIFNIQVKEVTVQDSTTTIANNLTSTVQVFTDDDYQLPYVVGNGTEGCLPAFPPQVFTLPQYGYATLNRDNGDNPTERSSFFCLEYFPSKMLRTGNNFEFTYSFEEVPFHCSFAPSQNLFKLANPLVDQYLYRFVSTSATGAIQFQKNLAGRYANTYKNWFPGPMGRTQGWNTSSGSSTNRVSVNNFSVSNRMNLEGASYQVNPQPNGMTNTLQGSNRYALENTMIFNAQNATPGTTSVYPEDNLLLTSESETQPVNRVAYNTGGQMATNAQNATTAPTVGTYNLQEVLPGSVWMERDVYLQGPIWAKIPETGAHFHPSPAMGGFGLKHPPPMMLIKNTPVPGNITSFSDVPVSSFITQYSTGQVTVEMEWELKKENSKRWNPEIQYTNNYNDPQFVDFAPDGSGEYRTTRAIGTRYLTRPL
T1 chain 3: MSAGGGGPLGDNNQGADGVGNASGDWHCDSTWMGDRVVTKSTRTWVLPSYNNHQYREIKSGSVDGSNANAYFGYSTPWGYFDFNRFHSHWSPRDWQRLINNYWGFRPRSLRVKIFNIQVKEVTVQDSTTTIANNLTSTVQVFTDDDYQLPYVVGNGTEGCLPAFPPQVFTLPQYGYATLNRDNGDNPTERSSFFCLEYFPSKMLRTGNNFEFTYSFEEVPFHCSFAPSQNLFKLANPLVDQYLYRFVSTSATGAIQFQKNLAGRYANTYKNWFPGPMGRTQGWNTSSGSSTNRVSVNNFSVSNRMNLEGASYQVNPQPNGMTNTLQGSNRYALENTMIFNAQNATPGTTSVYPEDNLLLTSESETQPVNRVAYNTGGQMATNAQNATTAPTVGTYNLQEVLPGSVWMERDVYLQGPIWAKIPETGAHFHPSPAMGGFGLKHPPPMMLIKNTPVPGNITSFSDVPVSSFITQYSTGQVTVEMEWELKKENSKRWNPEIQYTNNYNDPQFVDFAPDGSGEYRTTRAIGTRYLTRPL


Columns and labels:
Experiment in all cases: ELISA
[1] = biological target: T1, AAVGo.1 virus-like particles (goat …)
[2] = biological target: AAV2 virus-like particles (adeno-associated virus 2)
[3] = biological target: AAV5 virus-like particles (adeno-associated virus 5, UniProt Q9YIJ1 2-724)

| Binder | EC50 [1] [nM] | EC50 [2] [nM] | EC50 [3] [nM] |
| --- | --- | --- | --- |
| His6PKD12, fragment of human AAV receptor (AAVR) with PKD domains 1 and 2 (domain or fragment) MASHHHHHHVSAGESVQITLPKNEVQLNAYVLQEPPKGETYTYDWQLITHPRDYSGEMEGKHSQILKLSKLTPGLYEFKVIVEGQNAHGEGYVNVTVKPEPRKNRPPIAIVSPQFQEISLPTTSTVIDGSQSTDDDKIVQYHWEELKGPLREEKISEDTAILKLSKLVPGNYTFSLTVVDSDGATNSTTANLTVNKAVD | 120 | 340 | 280 |
| His6PKD1, fragment of human AAV receptor (AAVR) with PKD domain 1 (domain or fragment) SAGESVQITLPKNEVQLNAYVLQEPPKGETYTYDWQLITHPRDYSGEMEGKHSQILKLSKLTPGLYEFKVIVEGQNAHGEGYVNVTVKPE | 140 |  | 400 |
